Experiment [1] has as its target T1, His-tagged cynomolgus monkey DR5 (cynomolgus monkey (Macaca fascicularis)).
T1 construct: also called His-tagged DR5
Briefly: Biacore (SPR); DR5 mAb 4×CD3 mAb 2 diabody with His-tagged cynomolgus monkey DR5.
Method: (§1) Bi-specific DR5×CD3 diabodies were incubated with His-tagged DR5 and the kinetics of binding was determined via Biacore analysis.

Experiment [2] has as its target T2, histidine tagged TRAIL (UniProt P50591 95-281, limits assumed).
T2 construct: also called TRAIL-His; TRAIL ligand; not shown: histidine tag
Briefly: ELISA; biotinylated DR5 mAb 1 on 1 µg/mL TRAIL-His coat.

The next experiment concerns the target human DR5 (human, UniProt O14763 56-210, limits assumed). Briefly: titration with fluorescence readout (y axis: Log MFI); the text does not describe the assay format.
Experiment [3] addresses T2, histidine tagged TRAIL. Briefly: ELISA; biotinylated DR5 mAb 2 on 1 µg/mL TRAIL-His coat.
Experiment [4] has as its target T1, His-tagged cynomolgus monkey DR5. Briefly: Biacore (SPR); DR5 mAb 3×CD3 mAb 2 diabody with His-tagged cynomolgus monkey DR5. (SPR reads the build-up and loss of mass on a sensor chip optically.)
Method: as §1
For experiment [5] the target is unchanged. Briefly: Biacore (SPR); DR5 mAb 2×CD3 mAb 2 diabody with His-tagged cynomolgus monkey DR5.
Method: as §1

Sequence of human DR5 (O14763 other isoform, or with tags, fused parts or gaps limits assumed): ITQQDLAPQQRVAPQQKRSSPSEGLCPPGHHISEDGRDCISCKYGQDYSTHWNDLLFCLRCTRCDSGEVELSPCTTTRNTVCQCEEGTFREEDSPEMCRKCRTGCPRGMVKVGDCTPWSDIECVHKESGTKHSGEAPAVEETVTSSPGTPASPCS

B1: DR5 mAb 4×CD3 mAb 2 diabody (bispecific antibody)
chain 1: EIVLTQSPGTLSLSPGERATLSCRASQGISRSYLAWYQQKPGQAPSLLIYGASSRATGIPDRFSGSGSGTDFTLTISRLEPEDFAVYYCQQFGSSPWTFGQGTKVEIKGGGSGGGGEVQLVESGGGLVQPGGSLRLSCAASGFTFSTYAMNWVRQAPGKGLEWVGRIRSKYNNYATYYADSVKGRFTISRDDSKNSLYLQMNSLKTEDTAVYYCVRHGNFGNSYVSWFAYWGQGTLVTVSSASTKGEVAACEKEVAALEKEVAALEKEVAALEK
chain 2: QAVVTQEPSLTVSPGGTVTLTCRSSTGAVTTSNYANWVQQKPGQAPRGLIGGTNKRAPWTPARFSGSLLGGKAALTITGAQAEDEADYYCALWYSNLWVFGGGTKLTVLGGGGSGGGGQVQLQESGPGLVKPSQTLSLTCTVSGGSISSGDYFWSWIRQLPGKGLEWIGHIHNSGTTYYNPSLKSRVTISVDTSKKQFSLRLSSVTAADTAVYYCARDRGGDYYYGMDVWGQGTTVTVSSASTKGKVAACKEKVAALKEKVAALKEKVAALKE
notes: Two-chain bi-specific DR5×CD3 diabody with the VL and VH of conatumumab (DR5 mAb 4); also called conatumumab variable domains
The Kd is the concentration at which binding is half-saturated. Consider B1, for which, in experiment [1], binding was put at a Kd of 16.4 nM.

B2: DR5 mAb 1 (antibody, V domains shown)
VH: EVKFLESGGGLVQPGGSLKLSCVASGFDFSRYWMSWVRQAPGKGLEWIGEINPDSNTINYTPSLKDKFIISRDNAKNTLYLQMTKVRSEDTALYYCTRRAYYGNPAWFAYWGQGTLVTVSS
VL: DIVLTQSPASLAVSLGQRATISCRASKSVSSSGYSYMHWYQQKPGQPPKVLIFLSSNLDSGVPARFSGSGSGTDFTLNIHPVEDGDAATYYCQHSRDLPPTFGGGTKLEIK
notes: Murine anti-human DR5 monoclonal antibody; also called anti-human DR5 monoclonal antibody DR5 mAb 1
The EC50 (read off the curve) is the concentration that produces a half-maximal response. On to B2, for which the binding result with histidine tagged TRAIL [2] was “no binding (tested: 2 µg/mL)”. In addition, the 50% effective concentration (EC50 (read off the curve)) in the experiment with human DR5 is ~1 nM.

B3: DR5 mAb 2 (antibody, V domains shown)
VH: KVQLQQSGAELVKPGASVKLSCKASGYTFTEYILHWVKQKSGQGLEWIGWFYPGNNNIKYNEKFKDKATLTADKSSSTVYMELSRLTSEDSAVYFCARHEQGPGYFDYWGQGTTLTVSS
VL: DIVMTQSHKFMSTSVGDRVSITCKASQDVNTAVAWYQQKPGQSPKLLIYWASTRHTGVPDRFTGSGSGTDYTLTIKSVQAEDLTLYYCQQHYITPWTFGGGTKLEIK
notes: Murine anti-human DR5 monoclonal antibody; also called anti-human DR5 monoclonal antibody DR5 mAb 2; DR mAb 2
Consider B3, for which, in the experiment with histidine tagged TRAIL [3], the binding result is given as “no binding (tested: 2 µg/mL)”.

B4: DR5 mAb 3×CD3 mAb 2 diabody (bispecific antibody)
chain 1: SELTQDPAVSVALGQTVRITCSGDSLRSYYASWYQQKPGQAPVLVIYGANNRPSGIPDRFSGSSSGNTASLTITGAQAEDEADYYCNSADSSGNHVVFGGGTKLTVLGGGGSGGGGEVQLVESGGGLVQPGGSLRLSCAASGFTFSTYAMNWVRQAPGKGLEWVGRIRSKYNNYATYYADSVKGRFTISRDDSKNSLYLQMNSLKTEDTAVYYCVRHGNFGNSYVSWFAYWGQGTLVTVSSASTKGEVAACEKEVAALEKEVAALEKEVAALEK
chain 2: QAVVTQEPSLTVSPGGTVTLTCRSSTGAVTTSNYANWVQQKPGQAPRGLIGGTNKRAPWTPARFSGSLLGGKAALTITGAQAEDEADYYCALWYSNLWVFGGGTKLTVLGGGGSGGGGEVQLVQSGGGVERPGGSLRLSCAASGFTFDDYAMSWVRQAPGKGLEWVSGINWQGGSTGYADSVKGRVTISRDNAKNSLYLQMNSLRAEDTAVYYCAKILGAGRGWYFDYWGKGTTVTVSSASTKGKVAACKEKVAALKEKVAALKEKVAALKE
notes: Two-chain bi-specific DR5×CD3 diabody with the VL and VH of drozitumab (DR5 mAb 3); also called drozitumab variable domains
In experiment [4], B4 returned a Kd of 13.3 nM.

B5: DR5 mAb 2×CD3 mAb 2 diabody (bispecific antibody)
chain 1: DIVMTQSHKFMSTSVGDRVSITCKASQDVNTAVAWYQQKPGQSPKLLIYWASTRHTGVPDRFTGSGSGTDYTLTIKSVQAEDLTLYYCQQHYITPWTFGGGTKLEIKGGGSGGGGEVQLVESGGGLVQPGGSLRLSCAASGFTFSTYAMNWVRQAPGKGLEWVGRIRSKYNNYATYYADSVKGRFTISRDDSKNSLYLQMNSLKTEDTAVYYCVRHGNFGNSYVSWFAYWGQGTLVTVSSASTKGEVAACEKEVAALEKEVAALEKEVAALEK
chain 2: QAVVTQEPSLTVSPGGTVTLTCRSSTGAVTTSNYANWVQQKPGQAPRGLIGGTNKRAPWTPARFSGSLLGGKAALTITGAQAEDEADYYCALWYSNLWVFGGGTKLTVLGGGGSGGGGKVQLQQSGAELVKPGASVKLSCKASGYTFTEYILHWVKQKSGQGLEWIGWFYPGNNNIKYNEKFKDKATLTADKSSSTVYMELSRLTSEDSAVYFCARHEQGPGYFDYWGQGTTLTVSSASTKGKVAACKEKVAALKEKVAALKEKVAALKE
notes: Two-chain bi-specific DR5×CD3 diabody
In experiment [5], B5 displayed a Kd of 0.42 nM.
